Reference: IntAct's records for PubMed 18555782

B1: Heat shock protein homolog SSE1 (Saccharomyces cerevisiae), P32589 (parent)
chain: MSTPFGLDLGNNNSVLAVARNRGIDIVVNEVSNRSTPSVVGFGPKNRYLGETGKNKQTSNIKNTVANLKRIIGLDYHHPDFEQESKHFTSKLVELDDKKTGAEVRFAGEKHVFSATQLAAMFIDKVKDTVKQDTKANITDVCIAVPPWYTEEQRYNIADAARIAGLNPVRIVNDVTAAGVSYGIFKTDLPEGEEKPRIVAFVDIGHSSYTCSIMAFKKGQLKVLGTACDKHFGGRDFDLAITEHFADEFKTKYKIDIRENPKAYNRILTAAEKLKKVLSANTNAPFSVESVMNDVDVSSQLSREELEELVKPLLERVTEPVTKALAQAKLSAEEVDFVEIIGGTTRIPTLKQSISEAFGKPLSTTLNQDEAIAKGAAFICAIHSPTLRVRPFKFEDIHPYSVSYSWDKQVEDEDHMEVFPAGSSFPSTKLITLNRTGDFSMAASYTDITQLPPNTPEQIANWEITGVQLPEGQDSVPVKLKLRCDPSGLHTIEEAYTIEDIEVEEPIPLPEDAPEDAEQEFKKVTKTVKKDDLTIVAHTFGLDAKKLNELIEKENEMLAQDKLVAETEDRKNTLEEYIYTLRGKLEEEYAPFASDAEKTKLQGMLNKAEEWLYDEGFDSIKAKYIAKYEELASLGNIIRGRYLAKEEEKKQAIRSKQEASQMAAMAEKLAAQRKAEAEKKEEKKDTEGDVDMD

Variants of: B1
Conditions: with hsp71_yeast SSA1, P10591
Chain of hsp71_yeast SSA1, P10591 (P10591 whole entry): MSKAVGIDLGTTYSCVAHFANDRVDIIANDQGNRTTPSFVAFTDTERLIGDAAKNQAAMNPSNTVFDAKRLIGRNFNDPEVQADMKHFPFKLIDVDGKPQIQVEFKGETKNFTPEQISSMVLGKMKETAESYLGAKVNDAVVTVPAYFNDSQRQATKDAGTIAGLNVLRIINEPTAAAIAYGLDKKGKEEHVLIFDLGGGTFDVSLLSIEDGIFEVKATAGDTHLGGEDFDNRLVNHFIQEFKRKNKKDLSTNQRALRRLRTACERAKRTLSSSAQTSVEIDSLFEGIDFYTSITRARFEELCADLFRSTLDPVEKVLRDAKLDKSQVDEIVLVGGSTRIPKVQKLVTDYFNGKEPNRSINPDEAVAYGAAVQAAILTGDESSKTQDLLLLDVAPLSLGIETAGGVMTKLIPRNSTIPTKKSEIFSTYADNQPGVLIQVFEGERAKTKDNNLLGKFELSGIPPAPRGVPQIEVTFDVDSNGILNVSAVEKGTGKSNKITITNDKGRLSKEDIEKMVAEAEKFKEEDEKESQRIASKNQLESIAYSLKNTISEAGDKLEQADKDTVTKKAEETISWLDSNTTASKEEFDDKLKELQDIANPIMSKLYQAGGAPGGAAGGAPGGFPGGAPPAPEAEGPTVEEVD

| effect of a mutation on the interaction | Variant |
| --- | --- |
| decreasing interaction | F392A;F394A |
| decreasing interaction | N572Y;E575A |
| decreasing interaction | D396A |
| decreasing interaction | E554A;M557S;L558S |
| decreasing interaction | A280T;N281A |
| decreasing interaction | T365V;N367S |
| decreasing interaction | L489A;H490A |
